Article PMC7368059

Molecular target: full length La Crosse virus L protein (RNA-dependent RNA polymerase) (La Crosse virus (strain LACV/mosquito/1978)) (UniProt A5HC98)
Assay: crystal structure; LACV-L FL with 3' (1-16) and 5' (9-16) vRNA at 5 mg/ml, 5' (1-10) vRNA soaked in; 100 mM Tris pH 8.0, 100 mM NaCl, 8% PEG 4000; space group C2, 4.0 Å; two L protein complexes per asymmetric unit

Substance “full length La Crosse virus L protein (RNA-dependent RNA polymerase) (from UniProt A5HC98 1-2263) (enzyme)” has a stoichiometry N of 2.
